We go through three molecules from article PMC3399738.

Series [1] deals with T1, RPA (human heterotrimer) (human, UniProt P27694;P15927;P35244 1-616;1-270;1-121). Nature of the series: pull-down.
The next series concerns the target SSB (Escherichia coli, UniProt P0AGE0 1-178). Briefly: pull-down.
Series [2] addresses T1, RPA (human heterotrimer). Briefly: EMSA.
Series [3] concerns the target T1, RPA (human heterotrimer). Briefly: EMSA. This is another data set of the same source.

T1 sequence (P27694 whole entry, chain 1 of 3): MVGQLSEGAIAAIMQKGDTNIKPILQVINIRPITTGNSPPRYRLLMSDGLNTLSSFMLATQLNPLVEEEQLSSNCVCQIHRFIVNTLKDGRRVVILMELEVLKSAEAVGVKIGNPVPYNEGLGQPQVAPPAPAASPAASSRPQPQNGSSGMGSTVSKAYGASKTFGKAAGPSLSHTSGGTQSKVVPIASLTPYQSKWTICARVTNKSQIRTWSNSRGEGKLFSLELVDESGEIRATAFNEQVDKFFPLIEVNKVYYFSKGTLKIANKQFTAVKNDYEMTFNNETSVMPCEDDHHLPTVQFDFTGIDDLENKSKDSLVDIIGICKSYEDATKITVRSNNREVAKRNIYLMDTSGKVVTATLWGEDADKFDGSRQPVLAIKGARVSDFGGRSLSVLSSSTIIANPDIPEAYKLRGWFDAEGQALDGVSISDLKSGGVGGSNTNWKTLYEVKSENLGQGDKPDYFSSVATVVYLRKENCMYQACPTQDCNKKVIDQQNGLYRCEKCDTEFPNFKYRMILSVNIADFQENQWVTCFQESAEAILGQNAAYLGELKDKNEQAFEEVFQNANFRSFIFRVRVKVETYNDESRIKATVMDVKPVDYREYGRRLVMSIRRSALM
T1 sequence (P15927 whole entry, chain 2 of 3): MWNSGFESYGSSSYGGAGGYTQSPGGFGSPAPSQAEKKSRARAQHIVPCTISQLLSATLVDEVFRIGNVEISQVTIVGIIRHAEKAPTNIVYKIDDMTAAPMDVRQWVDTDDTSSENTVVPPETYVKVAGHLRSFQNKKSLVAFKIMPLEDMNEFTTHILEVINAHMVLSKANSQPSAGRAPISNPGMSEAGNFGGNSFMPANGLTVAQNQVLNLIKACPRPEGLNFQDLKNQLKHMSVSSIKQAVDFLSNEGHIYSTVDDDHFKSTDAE
T1 sequence (P35244 whole entry, chain 3 of 3): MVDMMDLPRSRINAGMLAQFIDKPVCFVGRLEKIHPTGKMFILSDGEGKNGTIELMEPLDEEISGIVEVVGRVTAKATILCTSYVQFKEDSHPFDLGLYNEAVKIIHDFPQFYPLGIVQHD
SSB, sequence (P0AGE0 whole entry): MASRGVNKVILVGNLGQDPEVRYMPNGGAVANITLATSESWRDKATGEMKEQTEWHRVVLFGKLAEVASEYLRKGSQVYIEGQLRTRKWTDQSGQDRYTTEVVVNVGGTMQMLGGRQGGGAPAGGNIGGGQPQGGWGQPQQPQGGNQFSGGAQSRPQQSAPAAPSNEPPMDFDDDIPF

Turning to TTTTTTTTTTTTTTTTTTTTTTTTTTTTTT (ssDNA) [polyT(30) 3' biotin], the binding result with RPA (human heterotrimer) [1] and in the series with SSB was “binds” each time.

B1: dT30/dA30 duplex (dsDNA)
DNA 1: TTTTTTTTTTTTTTTTTTTTTTTTTTTTTT
DNA 2: AAAAAAAAAAAAAAAAAAAAAAAAAAAAAA
B1: in the series with RPA (human heterotrimer) [2], the binding result is “binds”.
TTTTTTTTTTTTTTTTTTTTTTTTTTTTTT (ssDNA) [polyT(30) 5' IRDye-700]: in the series with RPA (human heterotrimer) [3], the binding result was “binds”.
